Measured values taken from article PMC6289052.

What was measured:
[1] = system: TCF4 DBD (mouse); assay: PBM; settings: not given in the material (PBM protein binding as described previously)
[2] = system: USF1 DBD (mouse); assay: PBM; settings: not given in the material (PBM protein binding as described previously)

| Substance | binding signal [1] [Z-score] | binding signal [2] [Z-score] |
| --- | --- | --- |
| CAGGTGGT, cytosine | 52 |  |
| GTCACGTG, cytosine |  | 87 |
